B1: oncostatin M (OSM): 28-kDa glycoprotein of cytokine family, macrophage derived factor (protein)
chain: AAIGSCSKEYRVLLGQLQKQTDLMQDTSRLLDPYIRIQGLDVPKLREHCRERPGAFPSEETLRGLGRRGFLQTLNATLGCVLHRLADLEQRLPKAQDLERSGLNIEDLEKLQMARPNILGLRNNIYCMAQLLDNSDTAEPTKAGRGASQPPTPTPASDAFQRKLEGCRFLHGYHRFMHSVGRVFSKWGESPNRSRR
B2: G-CSF: granulocyte colony stimulating factor, growth factor used for stem cell mobilization (protein, UniProt P09919 31-207, looked up)
Granulocyte …: TPLGPASSLPQSFLLKCLEQVRKIQGDGAALQEKLVSECATYKLCHPEELVLLGHSLGIPWAPLSSCPSQALQLAGCLSQLHSGLFLYQGLLQALEGISPELGPTLDTLQLDVADFATTIWQQMEELGMAPALQPTQGAMPAFASAFQRRAGGVLVASHLQSFLEVSYRVLRHLAQP

Key:
[1] = tested on: SDF-1α/CXCL12 expression in human mesenchymal stem cells; test: Induction of SDF-1α/CXCL12 gene expression in human mesenchymal stem cells by oncostatin M (qPCR); assay type: cell-based; details: increasing concentrations of OSM
Experimental: Therefore, the effect of such media on the gene expression of SDF-1α/CXCL12 in human (stromal) mesenchymal stem cells by qPCR was evaluated (primers forward ATGCCCATGCCGATTCTT [SEQ ID NO. 5]; reverse […] [SEQ ID NO. 6]; reference sequence NCBI NM_000609.6).

LKS stem cells = test: G-CSF alone induced mobilization of LKS stem cells in diabetic mice; assay type: in vivo; details: G-CSF only
Excerpt: In order to obtain in vivo validation of such mechanism, inhibition of oncostatin M (OSM) has been carried out in mice induced with diabetes by injecting streptozotocin as mentioned above and analyzed after 4 weeks from hyperglycemia development, by intraperitoneal injection of a polyclonal neutralizing antibody (AF-495-NA, R&D Systems) specific for murine oncostatin M (OSM), before beginning a marrow stimulation cycle by a subcutaneous injection of G-CSF ([…] for 4 consecutive days).

Row | Molecule | expression of SDF-1α/CXCL12 [1] | mobilization of LKS stem cells (LKS stem cells)
1 | B1 | progressively increase the expression | 
2 | B2 |  | not able to induce mobilization
